Data taken from paper PMC11483992.
pKd: −log10 of the molar value. “And” between values parts separate entries of the source, which are not always exact repeats. Equal values may be shown once.

Tests used:
AS25 Y45A-A57G monobody = assay: ITC; Abl SH2 in the syringe (200 µM; 300 µM for AS25 Y45A-A57G) titrated to the monobody in the cell (20 µM; 30 µM for AS25 Y45A-A57G); 25 °C; 50 mM Tris pH 7.0, 250 mM NaCl, 5% glycerol; two replicate experiments
AS25 A57G monobody = assay: as above
AS25 monobody = assay: as above
monobody AS25 = assay: ITC; Abl SH2 in the syringe (200 µM, or 300 µM for AS25 Y45A-A57G) titrated to the monobody in the cell (20 µM, or 30 µM); 50 mM Tris pH 7.0, 250 mM NaCl, 5% glycerol; 25 °C
AS25_(Y45A-A57G) = assay: as above
AS25_(A57G) = assay: as above
Chain of AS25_(A57G) (main, as listed by the source A57G): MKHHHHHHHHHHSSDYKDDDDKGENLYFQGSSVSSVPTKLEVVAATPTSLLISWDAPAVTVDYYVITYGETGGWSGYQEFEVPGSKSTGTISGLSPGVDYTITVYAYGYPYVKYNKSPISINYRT

Chain of AS25 Y45A-A57G monobody (main, as listed by the source Y45A A57G): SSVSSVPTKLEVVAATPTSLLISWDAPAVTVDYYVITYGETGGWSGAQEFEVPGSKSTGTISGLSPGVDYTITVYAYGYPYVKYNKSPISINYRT
Chain of monobody AS25 (main, as listed by the source): as the sequence (main, as listed by the source A57G) above, with G89A counted along it
Chain of AS25_(Y45A-A57G) (main, as listed by the source Y45A A57G): as the sequence (main, as listed by the source A57G) above, with Y77A counted along it

pKd (AS25 Y45A-A57G monobody): 5.50
stoichiometry N (AS25 Y45A-A57G monobody): 0.792 and 0.788
pKd (AS25 A57G monobody): 6.73
stoichiometry N (AS25 A57G monobody): 0.864 and 0.817
pKd (AS25 monobody): 6.68
stoichiometry N (AS25 monobody): 0.861 and 0.869
pKd (monobody AS25): 6.74
stoichiometry N (monobody AS25): 1
pKd (AS25_(Y45A-A57G)): 5.57
stoichiometry N (AS25_(Y45A-A57G)): 1
pKd (AS25_(A57G)): 6.81
stoichiometry N (AS25_(A57G)): 1
Substance: Abl1 SH2 domain (from UniProt P00519 112-232) (domain or fragment)
